According to the DeepSol protein solubility set:

Test: soluble on expression in E. coli; label from the status in PepcDB or PDB records

Sequence	soluble on expression in E. coli
MTDVEQPVSVEDQQAQAQSYYDQVLGNAYVQTAINAYTKTKEFHPLLNSTLNSAEEKVSTVGNYAAQKAYDGYNSYYVKPKNTAYEAVSYGTERAKTAVESGKQAAIVGGTFGIGAAVVLTQFSLALSAGGAALVLEQVDSAKKLGSSAISTIKEAELAVEHRIFSALHQAQRIAMVPVEKITENTNSLLDILDGAVQKGLNIEVPPSVNLTIGQRVKNLASLIVQGVSNKAHDHVIDPINERARNYLEQLSQSFVLLDIVREKKTWVIEKSNELSTSVFDFKKTLEEEAQKYKVAPEEMLMKHIQSTSEQLSTQLQSLREKGQNVFGDGTKIDSTIDYLENLKKNFTDAEDVYKVRDEVLNEGRQRIAELSTWTTSLLIISAEWQFEPEDLLIEELYFDAPPPVRTRNLYRNRA	not soluble
MNSYPLISVIMSVYKEEREWLVSSIQSILDQTVSDFEFIIILDFPNSELLKTLKDFEKKDSRIIIYQNEKNVGLVESLNTALSFSRGKYIARMDADDISHKNRFEKQLKYITLNNLDLVGGNVNIFHSNKGIYNTTDKVQSDYFLCKLLKIGTIGIVHPTFFSKRNVYDTIGGYYHAECAEDLELLMRANLNGFKIGNIPDVILDCRYSEKSITKENAYFMFCTVKYLKSLYRSSLKSGDYKFNSNYIELYLYDENNKLAFSEKQNLMSEARHSFNEKKYISFLINLIKSILISRTVFFSIKVNVMSFLFRKVEVKIPKVLLACIKIKLQLEHHHHHH	soluble
MSLTKYHDLKNKVIVIAGGIKNLGALTAKTFALESVNLVLHYHQAKDSDTANKLKDELEDQGAKVALYQSDLSNEEEVAKLFDFAEKEFGKVDIAINTVGKVLKKPIVETSEAEFDAMDTINNKVAYFFIKQAAKHMNPNGHIITIATSLLAAYTGFYSTYAGNKAPVEHYTRAASKELMKQQISVNAIAPGPMDTSFFYGQETKESTAFHKSQAMGNQLTKIEDIAPIIKFLTTDGWWINGQTIFANGGYTTREGHHHHHH	soluble
MGSDKIHHHHHHMLRLFQRKSAVLPPVAAVTETALSKGLLQPKPAAELLATPRRQKLLEHIWQRTSLSRKQFHTLYRVPLERYADLVQQFPASESHHHAYLGGMLDHGLEIVAFALKLRQSHLLPAGASPEDQAAQAEAWTAAVAYAALLHDIGKIAVDLHVELQGGRIWHPWHGPLSQPYRFRHREGREYRLHGAATGLLYSRILDSAALDWLSGYPALWSQLLYVLSGQYEHADMLGELVVQADRASVAQELGGDPAKVMAAPKHALQRKLLEGLRYLLKEQLKLNQPEASDGWLTEDALWLVSKTVSDKLRAHLLSQGIDGIPASNSAVFNVLQEHSMLQLTCPHRPYQ	not soluble
MAHHHHHHMGTLEAQTQGPGSMSSSIEIFPDSDILVAAAGKRLVGAIGAAVAARGQALIVLTGGGNGIALLRYLSAQAQQIEWSKVHLFWGDERYVPEDDDERNLKQARRALLNHVDIPSNQVHPMAASDGDFGGDLDAAALAYEQVLAASAAPGDPAPNFDVHLLGMGPEGHINSLFPHSPAVLESTRMVVAVDDSPKPPPRRITLTLPAIQRSREVWLLVSGPGKADAVAAAIGGADPVSVPAAGAVGRQNTLWLLDRDAAAKLPS	soluble
MNPFQKIKSAVNKRQRFFINRTLQRKLTNQGMTVISANCVGAFILHDLHQPFNSPFVNLYLSPQDFLRYLQNIDFYLTQPLTFVQTEKSYPVGKLADLEIHFMHYHSEQEANEKWQLRTSRMKLDNLFIMMTDRDGVTEKDIQLFDQLPFKNKVIFTHKPYPAFKSAYYIKGFEKQNQVGDIFEFSGWNGKKYYDQFDYVKWFNHA	not soluble
MEMDKAVTGVALDLDHAQIGLIGIPDQPGIAAKVFQALAERGIAVDMIIQGVPGHDPSRQQMAFTVKKDFAQEALEALEPVLAEIGGEAILRPDIAKVSIVGVGLASTPEVPAKMFQAVASTGANIEMIATSEVRISVIIPAEYAEAALRAVHQAFELDKAHHHHHH	soluble
MGCGQLDRVDSILVGMSYYNFPSPQGIGNVLVGKAKQTVRIRIPSTNLRKEVVRVGGLLSVSVMAVALSSCSAHPESSLSKSNQLGYAVNDRLVTTNAGSTEGASTNAQLLAGRLYPAPYVSGPKGQLIPNLSMASAQVLPGINQKIVYTISPDAVYSDGEAVTCDDYLLAFTAGTYDYVFDSYMPLMKQIDKVECKPRDREVTVTLKENFGPRWRQLFPAGVILPAHAIARKMGVTLEDLNTVLQSRDVDALQPIAEVWNRGFSLDQFDPDLQVSSGPYKVDRVGDRGEVYLTRNPHYGGQPAEIESVVVWPKGANLKELKDTGSLEIAEVTSSKEIDWLDRNDSTNSFDVQAQSGVLTEELLLANAGVFATRENRQAFASCIDQSSIASESSELSGVEVAPVTARTIRANDPMAGHVKDLTEAHLHSDVEQARRLAGQTIAIGYEGPDARMEAIVANIRRSCEPAGIIVVDAHQEGSGIRDLSRSFTTDHGYQFDKIGTIDVVLKALDPATEFESVATTSNNIAATRQAELSTWDVVPSIPLASQPRVFVVDRRVSNVVLNTDLAGIGWNMDRWFFSKNSK	not soluble
MSTQYETQGYTINNAGRRLVVDPITRIEGHMRCEVNINDQNVITNAVSCGTMFRGLEIILQGRDPRDAWAFVERICGVCTGVHALASVYAIEDAIGIKVPDNANIIRNIMLATLWCHDHLVHFYQLAGMDWIDVLDALKADPRKTSELAQSLSSWPKSSPGYFFDVQNRLKKFVEGGQLGIFRNGYWGHPQYKLPPEANLMGFAHYLEALDFQREIVKIHAVFGGKNPHPNWIVGGMPCAINIDESGAVGAVNMERLNLVQSIITRTADFINNVMIPDALAIGQFNKPWSEIGTGLSDKCVLSYGAFPDIANDFGEKSLLMPGGAVINGDFNNVLPVDLVDPQQVQEFVDHAWYRYPNDQVGRHPFDGITDPWYNPGDVKGSDTNIQQLNEQERYSWIKAPRWRGNAMEVGPLARTLIAYHKGDAATVESVDRMMSALNLPLSGIQSTLGRILCRAHEAQWAAGKLQYFFNKLMTNLKNGNLATASTEKWEPTTWPTECRGVGFTEAPRGALGHWAAIRDGKIDLYQCVVPTTWNASPRDPKGQIGAYEAALMNTKMAIPEQPLEILRTLHSFDPCLACSTHVLGDDGSELISVQVR	not soluble
MYDKILKMLTDTIKQFSDAPIYLDNVMQSSEPFYFVLSVEESMTDNVGQNVQNKAYNVDIALVDSKKDKQLVKSLTESCGAFFNVLNLDGNELFPEDYQTFKTDGIQHINFNVAFPQLIEWSEK	not soluble
MVAQARRQGCGERLTTATAVATPATAEQGETTMETVEEFLAHSIKLEQEAALRFGQLADAMDSCGNKEVSKLFRQLADYSRMHQADAQARAGFRDIPQMEPGDFKWPGLESPEAAAIWGTDPFIGRDLALQIALEAETGAFDWYKNVLDTTDNPEIKMLAKEFVEEESGHVAELHRWIALHKAGKPLPMEIVPF	not soluble
MKSPQAQQILDQARRLLYEKAMVKINGQYVGTVAAIPQSDHHDLNYTEVFIRDNVPVMIFLLLQNETEIVQNFLEICLTLQSKGFPTYGIFPTSFVETENHELKADYGQRAIGRVCSVDASLWWPILAYYYVQRTGNEAWARQTHVQLGLQKFLNLILHPVFRDAPTLFVPDGAFMIDRPMDVWGAPLEIQTLLYGALKSAAGLLLIDLKAKGYCSNKDHPFDSFTMEQSHQFNLSVDWLKKLRTYLLKHYWINCNIVQALRRRPTEQYGEEASNEHNVHTETIPNWLQDWLGDRGGYLIGNIRTGRPDFRFFSLGNCLGAIFDVTSLAQQRSFFRLVLNNQRELCAQMPLRICHPPLKDDDWRSKTGFDRKNLPWCYHNAGHWPCLFWFLVVAVLRHSCHSNYGTVEYAEMGNLIRNNYEVLLRRLPKHKWAEYFDGPTGFWVGQQSRSYQTWTIVGLLLVHHFTEVNPDDALMFDLPSLKSLHQALHLEHHHHHH	not soluble
GITPKYTATAKVYMVSASKNSVVDLADLSIGTSLSEDYAELLHVRPIIEAINEENDLGYTYEQLNGMIDISTVEDTRILKISATSIKPEEAKTIANALAEKAVTEIPKLMGTSSPNIAERAITPKGKSSPSLKKN	soluble
MSLGSTQLQLHGLLSNISSKEGTYAKLGGLYTQSLARLVAKCEDLFMGGQKKELHFNENNWSLFKLTCNKPCCDSGDAIYYCATCSEDPGSTYAVKICKAPEPKTVSYCSPSVPVHFNIQQDCGHFVASVPSSMLSSPDAPKDPVPALPTHPPAQEQDCVVVITREVPHQTASDFVRDSAASHQAEPEAYERRVCFLLLQLCNGLEHLKEHGIIHRDLCLENLLLVHCTLQAGPREKQLPRLIISNFLKAKQKPGGTPNLQQKKSQARLAPEIVSASQYRKFDEFQTGILIYELLHQPNPFEVRAQLRERDYRQEDLPPLPALSLYSPGLQQLAHLLLEADPIKRIRIGEAKRVLQCLLWGPRRELVQQPGTSEEALCGTLHNWIDMKRALMMMKFAEKAVDRRRGVELEDWLCCQYLASAEPGALLQSLKLLQEGHHHHHH	soluble
MDTLKRGKYAKFLHNYLVDNSSQRGYVLNLNAQWGAGKTYFINRWIDSIKDAHPVVYIDAWKQDYSDDPMLTVVSSIIDALEEHLPAGNKKAIALKNKATRFFKAAAPLLMKGLIKKATGMNIDDVEPETEKKEGSDLYNLTGEASAALAKCLIDDHNEKLKTVEHLRSDIKSLIEALDPKKKLKLPAFIFIDELDRCRPSYAVEMLEVIKHFFELENIVFVVATDTEQLQHAVKAVYGEGFDAQTYLGRFFRRRYSLSESSRFEFVKQMVGESYEIKSLEHHHHHH	not soluble
MEPLLSLKSVSKSYDDLNILDDIDIDIESGYFYTLLGPSGCGKTTILKLIAGFEYPDSGEVIYQNKPIGNLPPNKRKVNTVFQDYALFPHLNVYDNIAFGLKLKKLSKTEIDQKVTEALKLVKLSGYEKRNINEMSGGQKQRVAIARAIVNEPEILLLDESLSALDLKLRTEMQYELRELQSRLGITFIFVTHDQEEALALSDFLFVLKDGKIQQFGTPTDIYDEPVNRFVADFIGESNIVEGRMVRDYVVNIYGQDFECVDMGIPENKKVEVVIRPEDISLIKAEEGLFKATVDSMLFRGVHYEICCIDNKGYEWVIQTTKKAEVGSEVGLYFDPEAIHIMVPGETEEEFDKRIESYEEVDNA	not soluble
MSLSTIEDVAKLAGLSRTTVSRVINNHPYVSDEKKKRVQLAMKHLGFVPNSAARRLRKQKTETIAVLVPRITNPFFSRFIEAIEIAASEHKYKLIICQTRYLPEKEMEYLQLLSTKQVDGIILCSLENQWEDVEPYLQHGPIVLCNEYIEEANVPTVKFDHAQGAYIAAKHVLEQGYRNLIFCRGNETKVVSQQRKMGFLRAITEKSRQVEAIDFLENAFSWEDGKRIFHEVLKDKKNPTAILAGGDEVAAGIISEAKRHDWSIPDDLAVIGFDNQILSQITEPGITTIEQPIDEMARKVVDLMMDKIHTKNYRKKELYEFELELLVKGSTMKDTMLLAEGHHHHHH	not soluble
MQSPEKIDPTWEDSVIDSFISFVRSYDGDFTCIYKLADTVSDEYSLQKIIDFLSSTPQGKQAFQKRPQLGVVDLPKLHQLPTDTLGYVYADQMLQNNLQPLQSHEIDNDYQFFKTHITETHDLWHIVTGADTSILGEIQLEAFYVSQLYASRFWLALLAKNLLKAVIYDIELSTPYMDAISTGWVMAKQAKPLFGLEWNLLWEKPLADVRTSLNIILPVNLEHHHHHH	soluble
MGSDKIHHHHHHMYANKVKKIAAVHDLSGMGRVSLTVVIPILSSMGFQVCPLPTAVLSNHTQYPGFSFLDLTDEMPKIIAEWKKLEVQFDAIYTGYLGSPRQIQIVSDFIKDFRQPDSLIVADPVLGDNGRLYTNFDMEMVKEMRHLITKADVITPNLTELFYLLDEPYKADSTDEELKEYLRLLSDKGPQVVIITSVPVHDEPHKTSVYAYNRQGNRYWKVTCPYLPAHYPGTGDTFTSVITGSLMQGDSLPMALDRATQFILQGIRATFGYEYDNREGILLEKVLHNLDMPIQMASYELI	not soluble
